Values quoted from earlier work as cited in patent US7186797B2, “Polypeptide conjugates with extended circulating half-lives” (Epix Pharmaceuticals, Inc., priority 2001, dated 2007).

B1: granulocyte colony stimulating factor: commercially important polypeptide-based drug currently in use (protein, UniProt P09919 31-207, looked up)
Granulocyte …: TPLGPASSLPQSFLLKCLEQVRKIQGDGAALQEKLVSECATYKLCHPEELVLLGHSLGIPWAPLSSCPSQALQLAGCLSQLHSGLFLYQGLLQALEGISPELGPTLDTLQLDVADFATTIWQQMEELGMAPALQPTQGAMPAFASAFQRRAGGVLVASHLQSFLEVSYRVLRHLAQP
B2: interferon γ: commercially important polypeptide-based drug currently in use (protein, UniProt P01579 24-161, looked up)
Interferon gamma: QDPYVKEAENLKKYFNAGHSDVADNGTLFLGILKNWKEESDRKIMQSQIVSFYFKLFKNFKDDQSIQKSVETIKEDMNVKFFNSNKKKRDDFEKLTNYSVTDLNVQRKAIHELIQVMAELSPAAKTGKRKRSQMLFRG

Settings: unconjugated polypeptide drug, background statement
For “tissue plasminogen activator: commercially important polypeptide-based drug currently in use”, the t1/2 is listed as 55 min.
For streptokinase, the t1/2 is listed as 80 min.
For “human growth hormone: commercially important polypeptide-based drug currently in use”, the t1/2 is listed as 30 min.
For relaxin, the t1/2 is listed as 30 min.
For “Erythropoietin: commercially important polypeptide-based drug currently in use”, the t1/2 is given as 180 min.
In the case of tumor necrosis factor, the t1/2 is given as 18 min.
For urokinase, the t1/2 is listed as 50 min.
In the case of “granulocyte macrophage colony stimulating factor: commercially important polypeptide-based drug currently in use”, the t1/2 is given as 120 min.
For B1, the t1/2 is listed as 120 min.
In the case of B2, the t1/2 is listed as 30 min.
